Source: the supplement of paper PMC9170038

Experiments:
MS2 coat protein [1] = assay: apparent KD of MS2 coat protein, switch ON state; designed switch direction (-1 OFF switch, 1 ON switch): 1; higher = weaker reporter binding; details: FMN input: 0 or 200 uM; Eterna round: R93 (includes R88 designs)
Outline: (§1)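 The buffer was 100 mM Tris-HCl pH 7.5 with 80 mM KCl and 4 mM MgCl2, used without or with constant ligand. In it, RNA switches transcribed on-chip from Illumina sequencing clusters were titrated with SNAP-549-labelled MS2 coat protein in twofold steps from 0.7 or 1.5 nM to 3 µM. Apparent KD for each design is the median of its normalised cluster binding-curve fits.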

MS2 coat protein [2] = assay: apparent KD of MS2 coat protein, switch OFF state (with FMN for OFF switches, without FMN for ON switches); designed switch direction (-1 OFF switch, 1 ON switch): 1; higher = weaker reporter binding; details: FMN input: 0 or 200 uM; Eterna round: R93 (includes R88 designs)
Outline: as §1

Sequence | apparent KD of MS2 coat protein (MS2 coat protein [1]) [nM] | apparent KD of MS2 coat protein (MS2 coat protein [2]) [nM]
AAAUAAAUGACUGAGGAUAUAUCGAAGAAGACAUGAGGAUCACCCAUGUAAUAAUAAAAAGGGUGGUAGAAGGUAGUCAACAAAC [Mod 9 of Pariah 4 by Hyphema in Round 1] | 331 | 376
AAAUAAAUGACUAAGGAUAUAUCAGAGAAAACAUGAGGAUCACCCAUGUAAUAAUAAAAAGGGUGAUAGAAGGUAGUCAACAAACA [Pariah 4 (MS2 Riboswitches - Same State 2)] | 26 | 154
AUAUAUAUAAGGUAGGAUAUGCUAAAGUAAACAUGAGGAUCACCCAUGUAAAGAAAGAAACUCAUGUAGAAGGGCCAUAUAUAUA [viburnum 6] | 163 | 408
AUAUGGGCCCAUCAGGAUAUGUUCGGCGGAACAUGAGGAUCACCCAUGUGACAAAAGACGCCCACGCAGAAGGGAUUACAGGCAA [Anistera] | 22 | 49.7
UUACAGCACGGGUAGGAUAUGUAGGGUGGUACAUGAGGAUCACCCAUGUAUCCACCCUUCUAACGGCAGAAGGGCCUGUCGCUGC [Riarve] | 16.9 | 15.4
AAAUAAAAAAGGGAGGAUAUUCAUGUGAAAACAUGAGGAUCACCCAUGUAAAAAAAUAAAAAUAAAAAGAAGGAAAAAUAAAAAA [SS2: 80 No MS2] | 6.62 | 151
AAAUAAAGGACUGAGGAUAUACCACAUGAAACAUGAGGAUCACCCAUGUUGAAAAACAGAGGGUGGUAGAAGGUAGUCCACAAAC [Same State 2.5b ( so lets mod hyphema)] | 21.4 | 51.3
AACAUACAUGAGGAUCACCCAUGUUCCGGCAGGUCAGGAUAUAUAUCGAAAGAGUUAUAAAUAGAAGGGACAUAAA [JR_SS001_Sub009] | 49.6 | 60.7
GAUUACAUAGUUCAGGAUAUAUGAAUAGUCACAUGAGGAUCACCCAUGUCCAUUUAUAUGGGCACAUAGAAGGGAGGUAGGGAUC [Mat - Same state - Malcolm Mod - D148] | 392 | 571
AAUAAACAUGAGGAUCACCCAUGUCGGUAAAGUCAAGGAUAUGGGACUGGGAUUAAAGUGCCAGAAGGUGAAAAUA [Raxela] | 122 | 351
CGAAGACAUGAGGAUCACCCAUGUGGGAUUAUGGGAGGAUAUACAAAGACGAGAGUCAGAGUAGAAGGCCUAGGAG [salish99-ss1-126(!)] | 28.7 | 47.1
AAGAAAGUUUACGAGGAUAUGUUCCGCAGAACAUGAGGAUCACCCAUGUGAACACGAAGUGCGACGCAGAAGGCGUGAGCAAUGA [Isenmaqu] | 34.5 | 130
GCAGGGCUAAACUAGGAUAUGGGUGUCUAGACAUGAGGAUCACCCAUGUGAUGGCAAAACAAAGCUCAGAAGGAGUGGUAGCCCA [Quendi] | 11.9 | 75.4
GAGGACCUAGGAUAGGAUAUGUGAAAAAUUACAUGAGGAUCACCCAUGUCCAUUUAUAUGGGAACAUAGAAGGGUUCUGGUUAUC [Mat - Same state - Malcolm Mod - D150] | 35.7 | 61.6
AUUUAACAUGAGGAUCACCCAUGUAGGAAUACUGCAGGAUAUCGACACGAAAAUACGUGUCGAGAAGGGCAUGAAA [SS1 MT 25] | 13.8 | 22
AAAAAAAAAACUCAGGAUAUAGAUAAUUGAACAUGAGGAUCACCCAUGUAGUGAAAAAAAAAAAAUUAGAAGGGAGGAAAAAAAAA [SameState2-01] | 52.9 | 45.4
AAUAUAUUAAGUGAGGAUAUCGAGGAAAAAACAUGAGGAUCACCCAUGUGGGAAACCUGGUCGGGUGAGAAGGCACUUAAUAUAU [Samwise Clockwise 26 - Jieux - Same State 2] | 19.8 | 76.7
UGGAGACAUGAGGAUCACCCAUGUGAGAAGAGGCGAGGAUAUCGAAAGAAAGAAGAGAAACGAGAAGGCGCGAGCU [salish99-SS1-037] | 22.4 | 36.1
AGGAGACAUGAGGAUCACCCAUGUGCACGUGGACGAGGAUAUGCUAGUAGAAGAUAGAAUGCAGAAGGCGUAAGAA [Mod of JR] | 48.4 | 29.9
AAAAUAAAAUAAAAGGAUAUAAAAAAAUAUACAUGAGGAUCACCCAUGUAUAUAAAAAUAAAAUAAAAGAAGGAAUAAAAAUAAA [SS2 506: MS2 6] | 10.3 | 11.1
GAAGACAUAGUUCAGGAUAUAGGAAUAGUCACAUGAGGAUCACCCAUGUGCAUUUAUAUGCGCGCUUAGAAGGGAGGUAGAUAUA [SameState2 Malc#20] | 23.8 | 20.8

Sequence | apparent KD of MS2 coat protein (MS2 coat protein [1]) [nM] | apparent KD of MS2 coat protein (MS2 coat protein [2]) [nM]
AAACCACAUGAGGAUCACCCAUGUAGAAAUAUGGGAGGAUAUACGAAAACGAAAGUCAAAGUAGAAGGCCUAAAAG [saturn 2] | 36.7 | 129
AAAAGACAUGAGGAUCACCCAUGUCGAAAGACAUGAGGAUAUGUACAGACUUCGGUCUGUACAGAAGGCAUGAAAA [SS1 - 1067] | 17.1 | 68.7
GAAAAACAUGAGGAUCACCCAUGUAGAAAUAUGGGAGGAUAUACGAAGACGAAAGUCAAAGUAGAAGGCCUAAAGA [Mat - Same State 1 - Eli mod - D103] | 26.5 | 70.4
UUUCAUUACACGAAGGAUAUCGCUUUUCCGACAUGAGGAUCACCCAUGUAGUAGACCUCCCUGUUCGAGAAGGUCGCGGGUGAAC [JR_SS002_Sub604] | 192 | 32.4
GAAAAACAUGAGGAUCACCCAUGUGUAAAUAUGGAAGGAUAUACAAAGACGAAAGUCAAAGUAGAAGGUCUAAAAG [Mat - Same State 1 - Eli mod - D16] | 23.5 | 28.9
CGGGAAGAGAGAGAGGAUAUCCAAAGGAAAACAUGAGGAUCACCCAUGUAGAAGGUAGGAAAUUGGGAGAAGGCUCAAGAGAGAG [salish99-ss2-134] | 37.2 | 33.7
GGGAGGAAGAGAGAGGAUAUCCAAAGGAAAACAUGAGGAUCACCCAUGUAAAAGGUAGGAAAUUGGGAGAAGGCUCAAAAGACGG [salish99-ss2-047] | 28.1 | 52.5
AAGAAACAUGAGGAUCACCCAUGUAAAUUCGAGAGAGGAUAUCGUACAUGGAAGAUUCAACGAGAAGGCUCUAGAA [Same State 1.1 (Pariah 3, G boost at 31)] | 21 | 79.6
AAGAAAGAAACGCAGGAUAUGCAAAACAAAACAUGAGGAUCACCCAUGUCAAACAAACAAACAAAGCAGAAGGGCGAAAGAAAGAA [Same State 2 AA] | 18.1 | 21.3
AGGAAACAUGAGGAUCACCCAUGUAAAAAUAUGGGAGGAUAUAGAAAGACGAAAGUCAAACUAGAAGGCCUAAAAG [Garnet 5] | 16.1 | 83.3
AAAAAACAUGAGGAUCACCCAUGUCUUUUGACAUGAGGAUAUGUACAGACUUCGGUCUGUACAGAAGGCAUGAAAA [SS1 - 1029] | 48.4 | 432
AGGAAACAUGAGGAUCACCCAUGUAGAAAAAUGGGAGGAUAUACAAAGACGAAAGUCAAAGUAGAAGGCCUAAAAG [76%, Meechl, 6] | 14.5 | 45.8
AAGAAACAUGAGGAUCACCCAUGUAAAAAUAUGGGAGGAUAUACAAGGACGUAAGUCAAGGUAGAAGGCCUAAGAA [Mat - Same State 1 - Meechl mod - D136] | 20.2 | 82.5
AUAUAUAUAAGGUAGGAUAUCCAAUAAUCCACAUGAGGAUCACCCAUGUAAAGAAAGAAAAAGUGGGAGAAGGACCAUAUAUAUA [77%, More Tesla, 7] | 17.6 | 34
GUGGUGUAGAUACAGGAUAUGUUGCUCGUAACAUGAGGAUCACCCAUGUAUCUAUGAGAUUAAAUGCAGAAGGGUGCACACCACG [Maerveen] | 17.3 | 374
AAAUAAAUGACUAAGGAUAUUUCAGAGAAAACAUGAGGAUCACCCAUGUAAUAAUAAAAAGGGUGAGAGAAGGUAGUCAACAAAC [74%, More Paria 4] | 13.8 | 25.7
CGAGAACAUGAGGAUCACCCAUGUAAUGAAUGGUCAGGAUAUGGAGAUAGAUGACAAGCGCCAGAAGGGACAUCAG [JR_SS001_Sub1001] | 42.9 | 53.9
AGAAAUAAAAGAGAGGAUAUUCAAAAAGGGACAUGAGGAUCACCCAUGUAAAAGAAAAUAAAAUGGGAGAAGGCUCAAAAUAAAG [80%, More Helter Skelter 2] | 85.5 | 61.7
AUAACACAUGAGGAUCACCCAUGUAGAAACAAGUCAGGAUAUGCGACCUCAUGAAAUAAAGCAGAAGGGACACUAA [SS 1 Tesla 5] | 31.5 | 150
AAAUAGUGCACUAAGGAUAUGUCGCAUGACACAUGAGGAUCACCCAUGUGGUAACACAGAGGGUGGCAGAAGGUAGUGUGCAAAC [Mod 2 of Pariah 6 (Round1) by Hyphema] | 35.7 | 446
UAAAAAAAAAGGCAGGAUAUCCAAAAUAAAACAUGAGGAUCACCCAUGUAAAAAAAAAAAAAAUGGGAGAAGGGCCAAAAAAAAU [Mat - Same State 2 - Mod - 159] | 14 | 27
